Test results reported in patent publication US20260209347A1 (BIORAY PHARMACEUTICAL, published 2026).
Positions count from the first letter of the chain named.

B1: NKG2A positive control antibody Z270 (Monalizumab) (antibody, INN chains, looked up, V domains shown)
VH: QVQLVQSGAEVKKPGASVKVSCKASGYTFTSYWMNWVRQAPGQGLEWMGRIDPYDSETHYAQKLQGRVTMTTDTSTSTAYMELRSLRSDDTAVYYCARGGYDFDVGTLYWFFDVWGQGTTVTVSS
VL: DIQMTQSPSSLSASVGDRVTITCRASENIYSYLAWYQQKPGKAPKLLIYNAKTLAEGVPSRFSGSGSGTDFTLTISSLQPEDFATYYCQHHYGTPRTFGGGTKVEIK
B2: hu-43VH-13/VL-11 (antibody, human IgG4 S228P, kappa, V domains shown)
VH: QVQLVQSGAEVKKPGASVKVSCKASGFNIQNTYIHWVRQAPGQGLEWIGRIDPASGSTEYAPKFQGRATITADTSTNTGYMELSSLRSEDTAVYYCARYGNFLYYYSMDYWGQGTLVTVSS
VL: DIVMTQSPLSLPVTPGEPASISCRSNKSLLHSNGNTYLYWFLQKPGQSPQLLIYRMSNLASGVPDRFSGSGSGTDFTLKISRVEAEDVGVYYCMQHLENPYTFGQGTKLEIKR
B3: hu-43VH-11/VL-31 (antibody, human IgG4 S228P, kappa, V domains shown)
VH: B2 VH with I48M, A68V, I70M
VL: B2 VL with S7T, P12S, E17Q, S48P, K112R, R113T
B4: cAb-43 (antibody, human IgG4 S228P, kappa, V domains shown)
VH: EVQLQQSVAELVRPGASVKLSCTASGFNIQNTYIHWVKQRPEQGLEWIGRIDPASGSTEYAPKFQGKATITADTSSNSGYLQLSSLTSEDTAIYYCARYGNFLYYYSMDYWGQGTSVTVSA
VL: B2 VL with S7A, P8A, L9P, L11V, P18S, A19V, K44R, D75A, K79R, Q105G
notes: human-mouse chimeric antibody, human IgG4 constant region; also called antibody number 43; NKG2A chimeric antibody
B5: hu-43VH-11/VL-21 (antibody, human IgG4 S228P, kappa, V domains shown)
VH: B2 VH with I48M, A68V, I70M
VL: B2 VL with P15L, E17Q, L42Q, K44R, Q50R
B6: hu-43VH-21/VL-11 (antibody, human IgG4 S228P, kappa, V domains shown)
VH: B2 VH with I48M, A68V, I70M, T76I, S85R, E89D
VL: B2 VL
B7: cAb-52 (antibody, human IgG4 S228P, kappa, V domains shown)
VH: EVQLQQSVAELVRPGASVKLSCTASGFNIQNTYLHWVKQRPEQGLEWIGRIDPANDNIKYVPKFQGKATITADTSSNTAYLQLSSLTSEDTAIYYCTRHGLFYEGWFAYWGQGTLVTVST
VL: EIVLTQSPALMAASPGEKVTITCSVSSSISSSNLHWYQQKSGTSPKPWIYGTSNLASGVPVRFSGSGSGTSYSLTISSMEAEDAATYYCQQWSSYPYTFGSGTKLEIKR
notes: human-mouse chimeric antibody, human IgG4 constant region; also called antibody number 52; NKG2A chimeric antibody
B8: cAb-17 (antibody, human IgG4 S228P, kappa, V domains shown)
VH: EVQLQQSVAELVRPGASVKLSCTASGFNIKNTYIDWVKQRPEQGLEWIGNIDPANGNTKYAPKFQGKATITADTSSNTAYVQLSSLTSEDTAIYYCARWGGWDVRFAYWGQGTLVTVSA
VL: DIKMTQSPSSMYASLGERVTITCKASQDINTYLSWFQQKPGKSPKTLIYRANRLVDGVPSRFSGSGSGQNYSLTISSLEYEDMGIYYCLQYDEFPLTFGAGTKLELKR
notes: human-mouse chimeric antibody, human IgG4 constant region; also called antibody number 17; NKG2A chimeric antibody
B9: cAb-33 (antibody, human IgG4 S228P, kappa, V domains shown)
VH: B8 VH with I34M, N50R, V81L, W99E, G101N, V104D, R105W, A107V
VL: DVLMTQTPLSLPVSLGDQASISCRSSQSIVHSNGNTYLEWFLQKPGQSPKLLIYKVSNRFSGVPDRFSGSGSGTDFTLKISRVEAEDLGVYYCFQGSHVPPTFGGGTKLEIKR
notes: human-mouse chimeric antibody, human IgG4 constant region; also called antibody number 33; NKG2A chimeric antibody
B10: cAb-24 (antibody, human IgG4 S228P, kappa, V domains shown)
VH: EVQLQQSVAELVRPGASVKLSCTASGFNIQNTYMHWVKQRPEQGLEWIGRIDPANGNTKYAPKFQGKATITADTSSNTAYLQLSSLTSEDTAIYYCARYYDSRYGYWGQGTTLTVSS
VL: B8 VL with T31S, K45T, N70D, M83L, Y87F, L96W, A100G, L106I
notes: human-mouse chimeric antibody, human IgG4 constant region; also called antibody number 24; NKG2A chimeric antibody
B11: cAb-35 (antibody, human IgG4 S228P, kappa, V domains shown)
VH: B8 VH with I34M, N50R, Y60H, A72T, V81L
VL: B8 VL with T22N, K24Q, T31S, Y49H, N70D, Y91F
notes: human-mouse chimeric antibody, human IgG4 constant region; also called antibody number 35; NKG2A chimeric antibody
B12: cAb-9 (antibody, human IgG4 S228P, kappa, V domains shown)
VH: EVQLQQSVAELVRPGASVKLSCTASGFNIQNTYMHWVKERPEQGLEWIGRIDPANGDTEFAPKFQGKATLTTDTSSNTAYLQLSSLTSEDTAIYYCGRERYFYGSRGFAYWGQGTLVTVSA
VL: DILMTQSPPSMSVSLGDTVSITCHASQGISSNIGWLQQKPGKSFKGLIYHGTNLEDGVPSRFSGSGSGADYSLTISSLESEDFADYYCVQYAQFPWTFGGGTKLEIKR
notes: human-mouse chimeric antibody, human IgG4 constant region; also called antibody number 9; NKG2A chimeric antibody
B13: cAb-14 (antibody, human IgG4 S228P, kappa, V domains shown)
VH: EVQLQQSVAELVRPGASVKLSCTASGFNIKNTYIHWVKQRPEQGLEWIGRIDPANGNTKYAPKFQGKASIIVDTSSNTAYLQLSSLTSEDTAIYYCARYYASSPYYYNMDYWGQGTSVTVSS
VL: DIQMTQSPASLSVSVGETVTITCRASENIYSNLAWYQQKQGKSPQLLVYAATNLADGVPSRFSGSGSGTQYSLKINSLQSEDFGSYYCQHFWGTFTFGSGTKLEIKR
notes: human-mouse chimeric antibody, human IgG4 constant region; also called antibody number 14; NKG2A chimeric antibody

target: human NKG2A/CD94 on cells (CHOK1-hNKG2A/CD94) (human) (UniProt P26715); experiment: cell-based or functional assay
Sequence (P26715 whole entry, chain 1 of 2): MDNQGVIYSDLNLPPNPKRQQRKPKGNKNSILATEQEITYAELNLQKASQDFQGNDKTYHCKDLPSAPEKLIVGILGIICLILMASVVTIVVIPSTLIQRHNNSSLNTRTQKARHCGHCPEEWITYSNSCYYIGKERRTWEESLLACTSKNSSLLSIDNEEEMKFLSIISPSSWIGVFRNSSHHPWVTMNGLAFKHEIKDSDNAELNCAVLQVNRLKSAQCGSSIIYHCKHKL
Sequence (Q13241 whole entry, chain 2 of 2, further chain): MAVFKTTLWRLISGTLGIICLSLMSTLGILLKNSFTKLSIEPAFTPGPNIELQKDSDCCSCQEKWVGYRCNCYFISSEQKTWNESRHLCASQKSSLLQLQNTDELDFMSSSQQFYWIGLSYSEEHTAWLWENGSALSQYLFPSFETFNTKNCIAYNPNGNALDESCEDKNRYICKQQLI

| Binder | IC50 (nM), killing of LCL721.221 target cells by NK92 cells [nM] |
| --- | --- |
| B1 | 1.11 |

target: human NKG2A/CD94 on cells (CHOK1-hNKG2A/CD94) (human) (UniProt P26715); experiment: cell-based or functional assay; remark: another data set of the same source

| Binder | IC50 (nM), killing of LCL721.221 target cells by NK92 cells [nM] |
| --- | --- |
| B1 | 0.57 |

target: T1, human NKG2A/CD94 on cells (CHOK1-hNKG2A/CD94) (human, UniProt P26715 1-233; Q13241 1-179); experiment: cell-based or functional assay
T1 sequence (P26715 whole entry, chain 1 of 2): as the sequence (P26715 whole entry, chain 1 of 2) above
T1 sequence (Q13241 whole entry, chain 2 of 2): as the sequence (Q13241 whole entry, chain 2 of 2, further chain) above

| Binder | IC50 (nM), killing of LCL721.221 target cells by NK92 cells [nM] |
| --- | --- |
| B2 | 0.37 |
| B3 | 0.45 |
| B4 | 0.28 |
| B5 | 0.33 |
| B6 | 0.52 |

target: T1, human NKG2A/CD94 on cells …; experiment: cell-based or functional assay; remark: another data set of the same source

| Binder | IC50 (nM), killing of LCL721.221 target cells by NK92 cells [nM] |
| --- | --- |
| B7 | 0.28 |

target: T1, human NKG2A/CD94 on cells …; experiment: FACS on CHOK1-hNKG2A/CD94 cells
Description: (§1) Human NKG2A overexpressing cells (CHOK1-hNKG2A/CD94), cyno NKG2A overexpressing cells (CHOK1-cynoNKG2A/CD94), and human NKG2C overexpressing cells (CHOK1-hNKG2C/CD94) were digested with TrypLE (purchased from Gibco). Cells were collected by centrifugation, then resuspended to 2E6/mL with FACS buffer (PBS+2% FBS). The cells were added to a 96-well cell plate at 100 μL per well, and the supernatant was discarded after centrifugation. The antibody was gradiently diluted with FACS buffer (initial concentration of 200 nM, 5-fold dilution, including point 0, a total of 10 concentration points), added to the cells at 100 μL/well, mixed, and incubated at 4° C. for 1 hour. The incubated cells were centrifuged at 300 g for 5 min and washed twice with FACS buffer. Secondary antibody, anti-human IgG fluorescent secondary antibody 488 (purchased from Thermofisher A-11013), was added, incubated at 4° C. for one hour, then the cells were washed twice with FACS buffer, resuspended in PBS and analyzed by FACS instrument.

| binding result | Binder |
| --- | --- |
| binds | B8 |
| binds | B9 |
| binds | B10 |
| binds | B11 |
| binds | B12 |
| binds | B13 |

target: T2, human NKG2C/CD94 on cells (CHOK1-hNKG2C/CD94) (human, UniProt P26717 1-231; Q13241 1-179); experiment: FACS on CHOK1-hNKG2C/CD94 cells
T2 construct: whole, on cells; also called human NKG2C overexpressing cells; human NKG2C overexpressing cell line
Description: as §1

T2 sequence (P26717 whole entry, chain 1 of 2): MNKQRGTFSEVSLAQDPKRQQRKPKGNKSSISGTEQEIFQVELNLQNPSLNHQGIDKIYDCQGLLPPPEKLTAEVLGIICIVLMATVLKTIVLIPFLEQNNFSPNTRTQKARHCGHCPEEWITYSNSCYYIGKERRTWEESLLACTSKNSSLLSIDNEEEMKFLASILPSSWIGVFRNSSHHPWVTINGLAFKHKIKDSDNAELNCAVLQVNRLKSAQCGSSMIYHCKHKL
T2 sequence (Q13241 whole entry, chain 2 of 2): as the sequence (Q13241 whole entry, chain 2 of 2, further chain) above

| Binder | binding result |
| --- | --- |
| B7 | no binding (tested: initial concentration of 200 nM) |
| B8 | no binding (tested: initial concentration of 200 nM) |
| B9 | no binding (tested: initial concentration of 200 nM) |
| B10 | no binding (tested: initial concentration of 200 nM) |
| B11 | no binding (tested: initial concentration of 200 nM) |
| B12 | no binding (tested: initial concentration of 200 nM) |
| B4 | no binding (tested: initial concentration of 200 nM) |
| B13 | no binding (tested: initial concentration of 200 nM) |

target: human NKG2A/CD94 on cells (CHOK1-hNKG2A/CD94) (human) (UniProt P26715); experiment: FACS on human NKG2A overexpressing cell line

| Maximum MFI [MFI] | Binder |
| --- | --- |
| 16100 | B1 |

target: T1, human NKG2A/CD94 on cells …; experiment: FACS on human NKG2A overexpressing cell line
Description: as §1
The binding activity of humanized antibodies to human NKG2A overexpressing cell line was detected by FACS (refer to Example 4 for FACS). The maximum MFIs of cAb-43 and its humanized mutant antibodies to human NKG2A overexpressing cell line were greater than that of the Z270 control antibody.

| Maximum MFI [MFI] | Binder |
| --- | --- |
| 18800 | B7 |
